Assay results from the DeepSol protein solubility set.

test: soluble on expression in E. coli; label from the status in PepcDB or PDB records

| Sequence | soluble on expression in E. coli |
| --- | --- |
| MSLTSHLLKAEIHCHLEGAAPPALVVKQAEKYGIDTSGFLRDGQYVWSDFAEFIQCYDAVAQVFKSDEDYAVLTETYLTELAEANTIYSELIISPDHGDRIGLGADAYLAGVAEGIRIAKEKTGIETRIIVTGERHFGPERVIAAAEYAARIRHPLVTGFNMAGEERMGRVADYARAFDIARDAGLGLTIHAGEVCGPESVADALDLVKPSRIGHGVRAIEDAALISRLVETGTVLEVCPGSNIALSVYPDFASHPLKALSDAGVRVCISSDDPPFFFTSLAREYALAADAFGFNDAEINRMTRTALECAFVDEATRERLLARLGDAEGHHHHHH | soluble |
| MGSDKIHHHHHHMFLSELYRYPVKSGQAQSLKASPVGLLGLQGDRRWMVVEEENGRFLTQRAWPQLGQIDASDDDSGQLLLQAPGQAPLRVPVPPADDALRGVTIWRDTLRVPDAGDAAAAWLSELLGKAVRLVHCPEQRARYLPNGYGLNSDRAAFPDGFPLLLIGQGSLDELNRRIGRPMSMRRFRPNLVVQGAEPFAEDGWKRIRIGSLVFRVLKPSVRCIFTTIDPVTGERSADREPMATLKTFREKEGDVLFGQNLAVDGSGWLEVGMEVEILE | not soluble |
| MTAHFRPAVYDLPRDGHTVFRWEHPPQQATVELERLQRKQSLAAAFRVFARLGFDMGGAGHITVRDPGRPDHFWVNPVGVYFGHVRVRDLLLVNPEGAVIEGEGALNLAAFAIHAALHEAHPEVVAAAHAHSLYGKAWSSLGRLLDPLTQDACAFYERHGLFDNFSGVVLEASEGVRIAAALAGRKALILQNHGLLTVGETVEAAVWRFIAMDNAAQTQLLAEAAGTPRPIPHEVARHTARQVGTEFGGWFSFQPYRERIVREEPDFLDLEHHHHHH | not soluble |
| MTEQLPNCPECGSAYAYEDRGLFICPECGHEWSPTEEVAEEGLVVKDSNGNLLADGDSVTVIKDLKVKGASGAIKQGTKVKNIRLVEGDHNIDCKVDGFGPMKLKSEFVKKN | not soluble |
| MPRLTDDDKKLLLMLAREAIVTYVREGITPATELSVPSLCEHYGCFVCIKKGGELRGCIGNFTSSQPLYQLVREMAVSAATRDPRFYPMTSKDITDFSLEISVLSPLEKISSPEQITVGTHGIYIEKNFFRGVLLPQVATEYGWDRDTFLMQTCVKAGLKPDDWRDGADIYIFSAEVFSLEHHHHHH | not soluble |
| NPNTCTESIGKVAPSYVDEPESEAPATAENTQPDVIIDWQAALKQSANKEDLAKDMLRMLIDFIPEVEEVVDHALEQDDYSREELIHVIHKLHGSSSYCGVPRLKSLCATLEHALRSGASIEEIEPEMFELQDEMIKVTTTAKLYLEQ | not soluble |
| MKTGDKAGAIAAAQYFVEVIEYSMHTSTTDLLEKYSYEHCDRCSHYIEVINTRQEKNVLPKSVVINSSQEGHPEFRGEGAIIWRVPMHLQISEQWEAGKEPRKEEVKVSFSVAIDNGHWVLVGVGEED | not soluble |
| MGSDKIHHHHHHMKIAISGKGGVGKTTLAATLAYLFARDGYRVTAIDCDADINLPSALGVKEKPKPLSELHEIIEKRVVGPMGTYKLNPKVDDVFEEYSVYNEDGVRVLVLGTIEKGGEGCFCPENAFLRAILRHAIFKREDVLILDMEAGIEHLGRGTARGVDLLIAVVEPGTRAVETLERIEKLGRDIGIERIAVVVNKFIESERARELISGIKYPILGVIHYDQCFVRADLENVPPYTVCDLKPFEEIKRRIEEFVQ | not soluble |
| MRQSISNDVATISRISAVPAILQVITESTGLGFAAVARVTEDSWTACAVLDNLGFGLKPGGELELISTICHEIRASHKPVVIDHVAEDELFCAHHTPRRYNFQSYISIPIFLTDGSFFGTICALDPKPAKLTGTPIEAMMVSFARLLALQIEAEENMQRVQ | not soluble |
| MPAGTRCVTQGEAEKNGMIPTGIFCDYQNGQEMYCYSEGKPDLVISDVWAYNTTPGVYSELRALVYNHGHGYAGKFSVAFFIDGSYVGEVEVNGLGANENTVARISYPHPCEGETDTFAAQVDYHNEVDEENENDNYHESPRIFQCSGGEMPNLEVVEAYIDYQDFCRALNYRNSSIVVVVANTGEQASPQTGGWIYIDGNSRGGFDIPSLQPGEETTISMNFPYMCEGSSDEIRVVVDSRNYVVESNENDNEYTFITDCIPMPSGTADLVVSYLETHVVEELLAGGLSYPLKSEINYTVENLGEDYSCNAEVGLFIDGVFQGQQYLPPLAPGDSITRTFIAKYDWERCSGISDTLTLKADVNNDVAESNENNNERSVTLYCIEYPLIKPDLTVEDVWIEGEGASNLDIVFTVKNIGLAASRATNAYVGVNYNPAGSTPIPPLNAGESVELRISGFTAQWQENTIEVCADSGNLVDEIPNEMNNCLTKTITIEDVGCYDGVRNRDEVGVDCGGYYCVPAALLRLKGDCSIRMTMAAGFQLEHHHHHH | not soluble |
